The text below walks through data of US20070098715A1 (published 2007).

Changes are numbered by the printed parent chain. Where two headings read alike, the source gives them in different places. Where only a bound is given, the exact number is not on record here.

Assay [1] has as its target T1, Ten-M2 endogenously expressed on human cancer cell lines (SNB-19 and others) (human, UniProt Q9NT68 1-2774).
T1 construct: whole, on cells; also called Ten-M2 (Cur007); CG50426
Put plainly: flow cytometry on SNB-19 cells at 4° C., Alexa647 anti-human IgG secondary. Background: In flow cytometry, cells or beads pass a laser one at a time.

Assay [2] concerns the target T2, Ten-M2 antigen (BiaCore analyte) (UniProt Q9NT68 399-2774).
The target in assay [3] is T2, Ten-M2 antigen (BiaCore analyte). The source holds these as a separate data set.
For assay [4] the target is unchanged. The source holds these as a separate data set.
Assay [5] addresses T1, Ten-M2 endogenously expressed on human …. Put plainly: cell-based or functional assay.
In assay [6] the target is T3, soluble Ten-M2 antigen (FIG. 1B), Ten-M2 amino acids 400-2733 with 6xHis-V5 tag (human, UniProt Q9NT68 399-2774).
T3 construct: also called Curagen 007-V5HIS; soluble Ten-M2 (Cur007) ECD
As to the kind of experiment: ELISA, plate coated with soluble Ten-M2 antigen, hybridoma supernatant. (An ELISA detects its analyte on a solid surface through an enzyme-linked reagent.)

In assay [7] the target is T2, Ten-M2 antigen (BiaCore analyte). The source holds these as a separate data set.

B1: Ten-M2-199 (antibody, IgG2, V domains shown)
VH: QVQLVQSGAEVKKPGASVKVSCKASGYTFTNYDINWLRQASGQGLEWMGWMNPDSGNTGYAQRFQGRVTMTRDTSISTAYMELSSLRSEDTAVYYCARYISSLHYYYYGMDVWGQGTTVTVSS
VL: DIQMTQSPSSLSASVGDRVTITCRASQSINSYLNWYQQKPGKAPRLLIYAASNLQSGVPSRFSGSGSGTDFTLTISSLQPEDFSTYYCQQSHNTPLTFGGGTKVEIK
notes: Fully human mAb from IgG2 kappa XenoMouse (B cell clone); also called Mab199
For B1, the “Total Bound Fluorescence” value in assay [1] was determined as 64.8. In addition, the koff (as a rule, the first-order rate constant of dissociation) in assay [2] is no more than 1e-06 s⁻¹. The kon (in general, a measure of how fast the partners come together) in assay [3] was 23300 M⁻¹ s⁻¹. In addition, the Kd (commonly the equilibrium constant for the complex coming apart) in assay [4] was no more than 0.043 nM. In addition, in assay [5], the “% Internalization (SNB-19 cells)” value is 46% and the “Internalized Fluorescence (SNB-19 cells, 37° C. 30 min, glutathione-resistant)” value (“Internalized Fluorescence” for short) was determined as 32.9.

B2: Ten-M2-7.2.1 (antibody, IgG2, V domains shown)
VH: QVQLQESGPGLVKPSETLSLTCTVSGGSISSYYWSWIRQPPGKGLEWIGYIYYSGNTNYNPSLKSRVTISVDTSKNQFSLKLSSVTAADTAVYYCARDIVVVPAARDYDYYYGMDVWGQGTTVTVSS
VL: EIVLTQFPGTLSLSPGESAPLSCRASQSVSSIDLVWYQQKPGQAPRLLIYGASSRATGIPDRFSVSGSGTDFTLTISRLEPEDFAVYYCQQYGSSPFTFGPGTKVDIK
notes: Hybridoma clone from IgG2 kappa XenoMouse; tested as hybridoma supernatant
As to B2, the binding result in assay [6] was “binds”.

B3: Ten-M2-7.1.1 (antibody, IgG2, V domains shown)
VH: QVQLVESGGGVVQPGRSLRLSCAASGFTFSNYGMHWVRQAPGKGLEWVAVIPFDGSNKYYADSVKGRFTISRDNSKNTLYLQTNSLRAEDTAVYYCARNWGYFDYWGQGTLVTVSS
VL: DIVMTQSPLSLPVTPGEPASISCRTSQSLLQSNGYNYLDWYLQKPGQSPQLLIYLGSSRASGVPDRFSGSGSGTDFTLKISRVEAEDVGVYYCMQALQTLTFGGGTKVEIK
notes: as for B2
With B3, the binding result in assay [6] was “binds”.

B4: Ten-M2-8.1 (antibody, IgG2, V domains shown)
VH: QVQLQQWGAGLLKPSETLSLTCAVYGGSFSHYYWSWIRQPPGKGLEWIGEINHSGSTNYNPSLKSRVTISVDTSKNQFSLKLSSVTAADTAVYYCARDITMVRGLGGMDVWGQGTTVTVSS
VL: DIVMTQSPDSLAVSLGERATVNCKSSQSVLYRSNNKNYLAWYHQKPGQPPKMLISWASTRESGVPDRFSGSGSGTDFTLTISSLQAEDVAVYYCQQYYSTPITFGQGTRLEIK
notes: as for B2
B4: in assay [6], the binding result is “binds”.

B5: Ten-M2-179 (antibody, IgG2, V domains shown)
VH: QVQLVESGGGVVQPGRSLRLSCAASGFTFSSYGMHWVRQAPGKGLEWVAFIWYDGSNKYYADSVKGRFTISRDNSKNTLYLQMNSLRAEDTAVYYCARDGSSGWYFFDYWGQGTLVTVSS
VL: DIVMTQTPLSLSVTPGQPASISCKSSQSLLHSDRQTYLFWYLQKPGQPPQLLIYEVSNRFSGVPDRFSGSGSGTDFTLKISRVEAEDVGVYYCMQSIQLPPTFGPGTKVDIK
notes: Fully human mAb from IgG2 kappa XenoMouse (B cell clone); also called Mab179
B5: the “Total Bound Fluorescence” value in assay [1] is 89.6. Further, the koff in assay [2] is no more than 1e-05 s⁻¹. For the same molecule, the kon in assay [3] was 16300 M⁻¹ s⁻¹. The Kd in assay [4] is no more than 0.61 nM. Also, in assay [5], the “% Internalization (SNB-19 cells)” value turned out to be 29% and the “Internalized Fluorescence” value stood at 13.6.

B6: Ten-M2-188 (antibody, IgG2, V domains shown)
VH: QVQLVQSGAEVKKPGASVKVSCKASGYTFTGYYMHWVRQAPGQGLEWMGWINPNSGGTNSAQRFQGRVTMTRDTSIYTAYMELSRLRSDDTAVYYCAREYRSGRYYNGMDVWGQGTTVTVSS
VL: DIQLTQSPSSLSASVGDRVTITCRASQDISNYLAWYQQKPGKVPKLLIYAASTLQSGVPSRFSGSGSGTDFTLTISSLQPEDIATYSCQKYSSTPFTFGPGTKVDIK
notes: Fully human mAb from IgG2 kappa XenoMouse (B cell clone)
As for B6, the “Total Bound Fluorescence” value in assay [1] worked out at 41.6. In addition, in assay [5], the “% Internalization (SNB-19 cells)” value worked out at 48% and the “Internalized Fluorescence” value amounted to 22.1.

B7: Ten-M2-120 (antibody, V domains shown)
VH: QVQLVESGGGVVQPGRSLRLSCAASGFTFSSYGMHWVRQAPGKGLEWVAVLWYDGSKKFYADSVKGRFTISRDNSKNTLYLQMNSLRAEDTALYYCARGPWNYYYYGMDVWGQGTTVTVSS
VL: EIVLTQSPGTLSLSPGERATLSCRASQSVISSYLAWYQQKPGQAPRLLIYNASNRATGIPDRFSGSGSGTDFTLTISRLEPEDFAVYYCQQYGSSPITFGQGTRLEIK
notes: also called Mab120
For the molecule B7, in assay [1], the “Total Bound Fluorescence” value stood at 58.4. Besides, in assay [3], the koff amounted to 0.000465 s⁻¹ and the kon came out at 26200 M⁻¹ s⁻¹. For the same molecule, in assay [5], the “% Internalization (SNB-19 cells)” value worked out at 40% and the “Internalized Fluorescence” value was found to be 26.4. In assay [7], this molecule registered a Kd of 18 nM.

B8: Ten-M2-140 (antibody, IgG2, V domains shown)
VH: B7 VH with V2E, Y32H, V50I, L51I, Y80S, L93V
VL: B7 VL with L21F, S32N, A52T, N54S, D61G, S66G, S77T
notes: Fully human mAb from IgG2 kappa XenoMouse (B cell clone); also called Mab140; anti-Ten-M2 monoclonal antibody clone 140
With B8, the “Total Bound Fluorescence” value in assay [1] stood at 75.3. Moreover, in assay [3], the off-rate (koff) is 0.000605 s⁻¹ and the kon was 40100 M⁻¹ s⁻¹. For the same molecule, in assay [5], the “% Internalization (SNB-19 cells)” value is 44% and the “Internalized Fluorescence” value was 36.5. Further, the dissociation constant Kd in assay [7] was 15 nM.

B9: Ten-M2-213 (antibody, IgG2, V domains shown)
VH: QVQLVQSGAEVKKPGASVKVSCKASGYTFTNYDINWVRQATGQGLEWMGWMNPNSGNTGYAQKFQGRVTMTRNTSIRTAYMELSSLRSEDTAVYYCARGPGGSFYYYYGMDVWGQGTTVTVSS
VL: DIQMTQSPSSLSASVGDRVTITCRASQSISSYLNWYQQKPGKAPNLLIYTASSLQSGVPSRFSGSGSGTVFTLTISSLQPEDFATYYCQQSSSTPFTFGPGTKVDFK
notes: Fully human mAb from IgG2 kappa XenoMouse (B cell clone); also called Mab 213
On to B9, for which the “Total Bound Fluorescence” value in assay [1] turned out to be 79.7. In assay [3], the Kd was 1.1 nM, the off-rate (koff) was determined as 3.22e-05 s⁻¹ and the association rate constant (kon) is 29000 M⁻¹ s⁻¹. In addition, in assay [5], the “% Internalization (SNB-19 cells)” value was 46% and the “Internalized Fluorescence” value came out at 40.2.
